Molecular target: S107-encoded IgG (monoclonal antibody bound by the Fab-binding site of SpA)
Experiment: ELISA

For “monomeric domain D′ of SpA (domain or fragment)”, the Fab-binding (relative activity in the inhibition immunoassay) was 0.01 M.

From article PMC1887708
